± gives the standard deviation of the averaged measurements.
Assays:
Saccharomyces cerevisiae [1] = test: protein stability index of tFT-peptide fusion (C-terminal peptide) (PSI (0-1 scale)); higher = more stable (slower turnover); conditions: genetic background: wild type; temperature: 30 C
Saccharomyces cerevisiae [2] = test: as above
Experimental: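 MPS profiling in S. cerevisiae of the tFT-X12 degron library: putative degron peptides plus stable controls, 12 aa, fused to the C-terminus of a sfGFP-mCherry timer. Cells are FACS-sorted into 8 mCherry/sfGFP bins and deep-sequenced. PSI runs from 0 (unstable) to 1 (stable). Backgrounds are wild type, das1Δ and doa10Δ at 30 °C, and wild type, das1Δ, cdc34-1 and cdc53-1 at 37 °C; 2-3 technical replicates each.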

[3] = genetic background: cdc34-1, temperature: 37 C
[4] = genetic background: cdc53-1, temperature: 37 C
[5] = genetic background: das1 deletion, temperature: 30 C
[6] = genetic background: das1 deletion, temperature: 37 C
[7] = genetic background: doa10 deletion, temperature: 30 C
[8] = genetic background: wild type, temperature: 30 C
[9] = genetic background: wild type, temperature: 37 C
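Also: PSI is a weighted mean of sequencing reads over stability bins, variants kept only with over 10 reads, mCherry proximal and sfGFP distal, peptide attached via GGGS linker.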

Row | Sequence | protein stability index (Saccharomyces cerevisiae [1]) | protein stability index (Saccharomyces cerevisiae [2]; [3]) | protein stability index (Saccharomyces cerevisiae [2]; [4]) | protein stability index (Saccharomyces cerevisiae [2]; [5]) | protein stability index (Saccharomyces cerevisiae [2]; [6]) | protein stability index (Saccharomyces cerevisiae [2]; [7]) | protein stability index (Saccharomyces cerevisiae [2]; [8]) | protein stability index (Saccharomyces cerevisiae [2]; [9])
1 | FNLWCRQLASIE | 0.327 ± 0.094 | 0.181 ± 0.034 | 0.218 ± 0.0042 | 0.276 ± 0.0061 | 0.187 ± 0.0035 | 0.29904 ± 0.00019 | 0.284 ± 0.012 | 0.178 ± 0.0067
2 | IYFFVLRLRLCG | 0.233 ± 0.1 | 0.278 ± 0.004 | 0.291 ± 0.021 | 0.235 ± 0.029 | 0.428 ± 0.0065 | 0.16 ± 0.0036 | 0.162 ± 0.015 | 0.253 ± 0.0032
3 | FPWGRIFLRLRT | 0.487 ± 0.049 | 0.34 ± 0.083 | 0.347 ± 0.025 | 0.47 ± 0.042 | 0.565 ± 0.01 | 0.5445 ± 0.0029 | 0.441 ± 0.015 | 0.5125 ± 0.0051
4 | GLVCPWLIVRFV | 0.2 ± 0.015 | 0.303 ± 0.051 | 0.3 ± 0.065 | 0.372 ± 0.036 | 0.5 ± 0.0067 | 0.161 ± 0.022 | 0.136 ± 0.0078 | 0.216 ± 0.03
5 | EWAILSLGVMCV | 0.225 ± 0.014 | 0.0657 ± 0.03 | 0.118 ± 0.085 | 0.193 ± 0.013 | 0.2 ± 0.0075 | 0.158 ± 0.0049 | 0.184 ± 0.032 | 0.173 ± 0.011
6 | VCFFSSSCFLLV | 0.47 ± 0.035 | 0.58 ± 0.026 | 0.607 ± 0.015 | 0.507 ± 0.021 | 0.623 ± 0.01 | 0.463 ± 0.0036 | 0.45 ± 0.033 | 0.567 ± 0.0069
7 | LWLFIVCWVGCV | 0.247 ± 0.033 | 0.234 ± 0.017 | 0.301 ± 0.044 | 0.201 ± 0.019 | 0.339 ± 0.014 | 0.1847 ± 0.00077 | 0.177 ± 0.025 | 0.31 ± 0.0052
8 | AFFFCVVVLFSF | 0.182 ± 0.044 | 0.194 ± 0.0078 | 0.233 ± 0.013 | 0.171 ± 0.027 | 0.289 ± 0.015 | 0.178 ± 0.018 | 0.176 ± 0.041 | 0.256 ± 0.054
9 | CFVICVCLCFGR | 0.35 ± 0.025 | 0.229 ± 0.044 | 0.3626 ± 0.002 | 0.232 ± 0.018 | 0.416 ± 0.015 | 0.206 ± 0.0033 | 0.21 ± 0.026 | 0.371 ± 0.0092
10 | VVWIQRTVLSLI | 0.27 ± 0.049 | 0.565 ± 0.038 | 0.603 ± 0.015 | 0.505 ± 0.03 | 0.6 ± 0.011 | 0.151 ± 0.0065 | 0.184 ± 0.027 | 0.327 ± 0.0052
